From publication PMC4183573, “Cyclophilin A Associates with Enterovirus-71 Virus Capsid and Plays an Essential Role in Viral Infection as an Uncoating Regulator” (PLoS Pathogens, 2014)
Where no end group is shown, it is not given here.

B1: GST-1P: H-I loop of EV71 VP1 with the S243P substitution (239-GSSKPKYPL-247) fused to GST (peptide)
chain: GSSKPKYPL
modifications: also: fused to GST
notes: H-I loop of the capsid protein VP1 of EV71, residues 239-247, with S243P; numbers count on: the VP1 protein, not the polypeptide; source: E. coli BL21 (DE3), held on glutathione-sepharose (GST column) beads; not shown: GST, N-terminal, kept
B2: GST-1S: peptide of the H-I loop of EV71 VP1 (239-GSSKSKYPL-247) fused to GST (peptide)
chain: GSSKSKYPL
modifications: also: fused to GST
notes: H-I loop of the capsid protein VP1 of EV71, residues 239-247; numbers count on: the VP1 protein, not the polypeptide; source: E. coli BL21 (DE3), held on glutathione-sepharose (GST column) beads; not shown: GST, N-terminal, kept

Biological target: T1, recombinant human CypA without a GST tag (human, UniProt P62937 1-165)
T1 construct: cyclophilin A (CypA), human, cloned into pGEX-6p-1; source: E. coli BL21 (DE3), purified (GST column, PreScission Protease, Superdex-75); not shown: GST, N-terminal, cleaved
Experiment: pull-down; recombinant human CypA (200 µg) with 50 µl glutathione-sepharose beads holding GST, GST-1S or GST-1P (200 µg) in 300 µl buffer (50 mM Tris-HCl pH 8.0, 150 mM NaCl, 1% Nonidet P-40, 2 mM EDTA), overnight at 4°C; eluted with GSH; blot for GST and CypA
Settings: both partners purified

Binder	binding result
B1	binds
B2	binds
